Data from the supplement of paper PMC10065799, “High-throughput profiling of sequence recognition by tyrosine kinases and SH2 domains using bacterial peptide display” (eLife, 2023).

Columns and labels:
c-Src SH2 = test: SH2 binding enrichment of the phosphorylated peptide, bacterial display (enrichment ratio); higher = better substrate or ligand; peptides without Tyr show the background
Grb2 SH2 = Grb2 SH2 (UniProt P62993); test: as above
SHP2-C SH2 = test: as above
c-Src = test: phosphorylation enrichment, bacterial display (enrichment ratio); higher = better substrate or ligand; peptides without Tyr show the background
FGFR1 = FGFR1 (UniProt P11362); test: as above
Fes = Fes (UniProt P07332); test: as above
MERTK = MERTK (UniProt Q12866); test: as above
Hck = Hck (UniProt P08631); test: as above
FGFR3 = FGFR3 (UniProt P22607); test: as above
Fyn = Fyn (UniProt P06241); test: as above
EPHB1 = EPHB1 (UniProt P54762); test: as above
EPHB2 = EPHB2 (UniProt P29323); test: as above
AncSZ = test: as above
Fer (mouse) = test: as above
Jak2 = Jak2 (UniProt O60674); test: as above
c-Abl (mouse) = test: as above
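Throughout, for SH2 binding enrichment of the phosphorylated peptide, bacterial display: peptide library displayed on the E. coli surface as eCPX fusions, selected cells deep-sequenced, score is each peptide's frequency after selection divided by its frequency in the input.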
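Throughout, for phosphorylation enrichment, bacterial display: 11-residue human phosphosite peptides and single-mutation variants displayed on the E. coli surface, counted by deep sequencing, each peptide's frequency after selection divided by its frequency in the unselected input library; frequency after pTyr selection over input frequency; kinase dosed for 20-30% of maximal phosphorylation in three min.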

Sequence of Hck (P08631 whole entry, looked up): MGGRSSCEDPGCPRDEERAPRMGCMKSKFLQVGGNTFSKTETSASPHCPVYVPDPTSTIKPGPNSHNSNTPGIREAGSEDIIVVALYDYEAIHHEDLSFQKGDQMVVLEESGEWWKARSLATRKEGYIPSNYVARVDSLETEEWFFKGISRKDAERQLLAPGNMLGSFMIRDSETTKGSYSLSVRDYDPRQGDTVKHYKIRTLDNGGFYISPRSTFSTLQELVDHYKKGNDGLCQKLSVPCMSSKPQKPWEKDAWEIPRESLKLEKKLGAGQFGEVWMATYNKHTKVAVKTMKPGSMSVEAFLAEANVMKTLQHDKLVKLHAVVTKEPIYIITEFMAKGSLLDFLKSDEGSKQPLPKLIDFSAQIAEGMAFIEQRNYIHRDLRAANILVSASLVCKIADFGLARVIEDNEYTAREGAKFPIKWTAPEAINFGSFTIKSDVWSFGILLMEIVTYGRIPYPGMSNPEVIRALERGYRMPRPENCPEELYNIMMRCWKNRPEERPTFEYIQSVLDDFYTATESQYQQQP
Sequence of MERTK (Q12866 whole entry, looked up): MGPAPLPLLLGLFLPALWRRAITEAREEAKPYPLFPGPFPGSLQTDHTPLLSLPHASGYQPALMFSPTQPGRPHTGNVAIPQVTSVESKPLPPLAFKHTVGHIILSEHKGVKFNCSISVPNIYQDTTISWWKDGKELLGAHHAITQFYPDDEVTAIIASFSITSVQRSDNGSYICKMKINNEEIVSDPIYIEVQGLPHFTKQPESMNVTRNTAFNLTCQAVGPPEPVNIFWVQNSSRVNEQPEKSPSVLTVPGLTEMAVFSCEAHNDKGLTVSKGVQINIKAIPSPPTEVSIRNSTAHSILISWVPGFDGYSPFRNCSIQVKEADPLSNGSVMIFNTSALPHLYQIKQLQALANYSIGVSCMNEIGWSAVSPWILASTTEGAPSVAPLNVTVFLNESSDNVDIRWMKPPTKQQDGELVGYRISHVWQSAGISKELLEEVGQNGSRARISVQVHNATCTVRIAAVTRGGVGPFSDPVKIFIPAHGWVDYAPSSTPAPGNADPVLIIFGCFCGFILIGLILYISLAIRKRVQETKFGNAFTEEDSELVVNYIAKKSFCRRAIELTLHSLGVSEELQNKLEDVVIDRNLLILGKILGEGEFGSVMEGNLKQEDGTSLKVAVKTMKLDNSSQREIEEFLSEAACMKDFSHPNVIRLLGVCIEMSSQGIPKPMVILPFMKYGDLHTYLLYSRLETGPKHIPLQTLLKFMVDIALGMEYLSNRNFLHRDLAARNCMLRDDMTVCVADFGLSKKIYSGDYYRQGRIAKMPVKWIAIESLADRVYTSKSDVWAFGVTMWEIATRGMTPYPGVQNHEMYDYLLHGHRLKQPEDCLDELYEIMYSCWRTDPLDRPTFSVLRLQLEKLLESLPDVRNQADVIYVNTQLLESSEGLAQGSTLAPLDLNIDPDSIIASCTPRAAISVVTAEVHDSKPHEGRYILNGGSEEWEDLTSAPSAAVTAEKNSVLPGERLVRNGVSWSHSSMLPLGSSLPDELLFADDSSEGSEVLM
Sequence of EPHB2 (P29323 whole entry, looked up): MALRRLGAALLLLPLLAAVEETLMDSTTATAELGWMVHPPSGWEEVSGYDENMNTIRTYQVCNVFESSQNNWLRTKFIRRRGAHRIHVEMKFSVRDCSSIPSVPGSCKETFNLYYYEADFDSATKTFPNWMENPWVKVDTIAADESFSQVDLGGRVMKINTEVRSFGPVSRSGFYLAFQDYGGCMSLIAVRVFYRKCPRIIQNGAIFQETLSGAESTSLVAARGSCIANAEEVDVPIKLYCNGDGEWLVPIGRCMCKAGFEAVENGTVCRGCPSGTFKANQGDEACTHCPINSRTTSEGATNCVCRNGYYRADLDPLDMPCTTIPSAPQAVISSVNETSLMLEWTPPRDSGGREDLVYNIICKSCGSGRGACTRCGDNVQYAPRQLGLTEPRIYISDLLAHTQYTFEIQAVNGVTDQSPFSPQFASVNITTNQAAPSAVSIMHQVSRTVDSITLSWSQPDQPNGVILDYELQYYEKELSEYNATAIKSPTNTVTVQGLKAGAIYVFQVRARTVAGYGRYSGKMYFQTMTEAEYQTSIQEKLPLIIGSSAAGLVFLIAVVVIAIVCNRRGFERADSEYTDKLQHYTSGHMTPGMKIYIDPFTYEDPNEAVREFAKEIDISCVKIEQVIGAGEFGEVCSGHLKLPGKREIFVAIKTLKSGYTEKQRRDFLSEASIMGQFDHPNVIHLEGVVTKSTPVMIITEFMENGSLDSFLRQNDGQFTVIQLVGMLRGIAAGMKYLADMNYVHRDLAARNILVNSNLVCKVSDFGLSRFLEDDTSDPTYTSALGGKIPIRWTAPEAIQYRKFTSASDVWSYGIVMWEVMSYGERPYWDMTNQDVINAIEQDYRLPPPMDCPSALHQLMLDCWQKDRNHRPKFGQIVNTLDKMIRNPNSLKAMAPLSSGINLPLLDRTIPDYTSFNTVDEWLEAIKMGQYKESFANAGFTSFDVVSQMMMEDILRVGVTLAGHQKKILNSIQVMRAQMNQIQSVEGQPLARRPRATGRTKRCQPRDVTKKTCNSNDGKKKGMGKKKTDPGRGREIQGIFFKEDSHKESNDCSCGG
Sequence of Grb2 SH2 (P62993 whole entry, looked up): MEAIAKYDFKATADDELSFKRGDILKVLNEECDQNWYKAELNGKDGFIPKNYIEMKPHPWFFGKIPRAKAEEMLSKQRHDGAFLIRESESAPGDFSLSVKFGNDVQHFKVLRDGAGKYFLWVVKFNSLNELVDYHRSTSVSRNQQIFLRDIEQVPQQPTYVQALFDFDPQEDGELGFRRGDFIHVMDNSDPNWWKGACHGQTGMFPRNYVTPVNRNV
Sequence of EPHB1 (P54762 whole entry, looked up): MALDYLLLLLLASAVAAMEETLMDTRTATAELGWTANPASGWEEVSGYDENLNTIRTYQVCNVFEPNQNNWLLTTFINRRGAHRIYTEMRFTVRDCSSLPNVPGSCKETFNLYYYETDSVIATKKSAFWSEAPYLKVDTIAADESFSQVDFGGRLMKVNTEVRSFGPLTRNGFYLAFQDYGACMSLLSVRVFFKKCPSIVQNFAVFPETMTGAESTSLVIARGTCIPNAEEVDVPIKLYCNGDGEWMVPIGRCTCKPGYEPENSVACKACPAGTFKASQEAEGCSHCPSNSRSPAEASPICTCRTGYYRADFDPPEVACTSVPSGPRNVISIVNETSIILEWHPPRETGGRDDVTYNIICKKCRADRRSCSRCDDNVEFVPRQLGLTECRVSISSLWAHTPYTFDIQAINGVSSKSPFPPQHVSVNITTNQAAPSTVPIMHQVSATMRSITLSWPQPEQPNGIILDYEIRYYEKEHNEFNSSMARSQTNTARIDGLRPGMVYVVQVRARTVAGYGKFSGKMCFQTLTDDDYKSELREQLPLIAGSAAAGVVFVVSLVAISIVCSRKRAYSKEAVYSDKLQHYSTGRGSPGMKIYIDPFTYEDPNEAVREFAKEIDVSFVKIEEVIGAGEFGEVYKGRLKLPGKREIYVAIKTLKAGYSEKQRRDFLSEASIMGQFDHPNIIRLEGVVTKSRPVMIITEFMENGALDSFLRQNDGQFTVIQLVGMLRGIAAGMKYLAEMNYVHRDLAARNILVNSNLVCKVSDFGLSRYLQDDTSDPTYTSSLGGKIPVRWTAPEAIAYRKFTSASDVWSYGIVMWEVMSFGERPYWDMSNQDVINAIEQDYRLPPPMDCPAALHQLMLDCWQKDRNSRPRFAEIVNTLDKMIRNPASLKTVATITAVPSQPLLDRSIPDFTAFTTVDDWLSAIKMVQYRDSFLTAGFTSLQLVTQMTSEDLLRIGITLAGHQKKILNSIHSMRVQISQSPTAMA
Sequence of Fes (P07332 whole entry, looked up): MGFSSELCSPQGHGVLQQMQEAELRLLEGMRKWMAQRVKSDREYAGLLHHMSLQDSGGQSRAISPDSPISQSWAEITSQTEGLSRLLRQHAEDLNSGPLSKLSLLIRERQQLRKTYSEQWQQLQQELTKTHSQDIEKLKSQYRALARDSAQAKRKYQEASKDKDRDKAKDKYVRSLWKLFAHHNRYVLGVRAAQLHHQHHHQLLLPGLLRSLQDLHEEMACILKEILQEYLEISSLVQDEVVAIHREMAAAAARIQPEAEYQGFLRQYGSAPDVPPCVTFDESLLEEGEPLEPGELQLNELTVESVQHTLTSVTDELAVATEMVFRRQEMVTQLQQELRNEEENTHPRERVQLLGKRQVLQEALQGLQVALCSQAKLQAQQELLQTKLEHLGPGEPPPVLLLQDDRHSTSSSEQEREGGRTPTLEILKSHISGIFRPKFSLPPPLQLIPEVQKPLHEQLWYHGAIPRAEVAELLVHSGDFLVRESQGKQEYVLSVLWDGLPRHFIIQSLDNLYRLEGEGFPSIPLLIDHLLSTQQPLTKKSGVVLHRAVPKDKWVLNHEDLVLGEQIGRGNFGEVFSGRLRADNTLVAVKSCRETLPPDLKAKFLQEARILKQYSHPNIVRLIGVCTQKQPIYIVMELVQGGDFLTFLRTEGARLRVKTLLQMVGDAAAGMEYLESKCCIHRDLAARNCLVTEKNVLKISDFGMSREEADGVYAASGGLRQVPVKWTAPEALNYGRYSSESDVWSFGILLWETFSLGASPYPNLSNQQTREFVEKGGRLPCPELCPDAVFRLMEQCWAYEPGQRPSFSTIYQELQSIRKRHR

Sequence	SH2 binding enrichment (c-Src SH2)	SH2 binding enrichment (Grb2 SH2)	SH2 binding enrichment (SHP2-C SH2)	phosphorylation enrichment (c-Src)	phosphorylation enrichment (FGFR1)	phosphorylation enrichment (Fes)	phosphorylation enrichment (MERTK)	phosphorylation enrichment (Hck)	phosphorylation enrichment (FGFR3)	phosphorylation enrichment (Fyn)	phosphorylation enrichment (EPHB1)	phosphorylation enrichment (EPHB2)	phosphorylation enrichment (AncSZ)	phosphorylation enrichment (Fer (mouse))	phosphorylation enrichment (Jak2)	phosphorylation enrichment (c-Abl (mouse))
GIVTGYLVLKE [DNMT3B_Y588_A585V]	0.735	1.11	1.31	0.448	0.553	1.4	0.524	0.505	0.895	0.492	0.684	0.494	1.07	0.647	1.31	0.833
GCKNRYDEDKP [THAP1_Y14_K16E]	0.692	1.35	0.722	0.438	0.606	0.808	0.431	0.596	0.722	0.49	0.51	0.497	0.856	0.452	0.617	0.512
TENAGYFFQVS	0.333	0.61	0.654	0.384	0.714	1.08	0.397	0.442	0.774	0.435	0.482	0.546	1.11	0.414	1.21	0.89
ASRKFYAMKIL [AKT3_Y174_G171R_YF]	0.543	0.817	0.679	0.464	0.578	0.617	0.441	0.417	0.518	0.45	0.459	0.428	0.725	0.362	0.7	0.441
GEDEPYSEPFA [APBA1_Y183_YF]	0.593	0.936	0.914	0.598	0.603	1.06	0.493	0.599	0.68	0.588	0.485	0.523	1.34	0.512	1.02	0.598
IDPFIYTPFGS [CYP3A4_Y432_YF]	0.604	0.861	1.06	6.49	0.584	1.12	2.86	5.82	0.779	6.96	0.686	0.549	0.927	1.67	0.73	0.773
GHLFANDWISI [BEST1_Y227_Y227N_YF]	0.493	0.904	0.708	0.469	0.43	0.789	0.421	0.502	0.484	0.399	0.424	0.625	0.703	0.427	0.782	0.627
HMRLRYLAAEE [CEP120_Y884_Q879H]	1.18	1.14	1.39	0.659	0.412	1.89	0.452	0.53	0.939	0.722	0.587	0.552	1.22	0.75	1.03	1.3
QQLDEYQKLLD [LMNA_Y359_E361K]	0.699	0.708	0.724	0.642	0.65	1.85	0.81	0.742	1.2	0.724	1.27	1.28	1.53	0.905	1.72	1.03
KIFPEYLSNWT [AIFM1_Y347_L344F]	0.628	0.944	0.614	0.479	0.811	0.916	0.47	0.488	0.721	0.43	0.513	0.512	0.914	0.502	1.18	0.657
LMIKEYLTKEL [BAG3_Y457_E455K]	0.621	1.03	1	0.353	0.437	1.36	0.411	0.571	0.72	0.469	0.524	0.612	0.867	0.491	0.896	0.666
KFMVGYEMIAQ [GALT_Y339_L342I]	7.36	0.914	0.884	0.427	0.492	1.06	0.457	0.507	0.723	0.444	0.58	0.569	1.03	0.487	0.956	0.696
SVVVPYEPSEV [TP53_Y220_P223S]	0.506	0.837	0.645	0.509	0.52	1.23	0.503	0.6	0.846	0.554	0.632	0.515	1.21	0.685	1.02	0.619
SVVVPSEPPEV [TP53_Y220_Y220S]	0.577	1.03	0.958	0.449	0.503	1.12	0.431	0.484	0.755	0.511	0.598	0.642	0.971	0.426	0.851	0.74
CQKRKYIEIDS [SDAD1_Y580_S575C]	2.53	1.03	0.892	0.479	0.55	0.814	0.38	0.48	0.6	0.485	0.513	0.505	0.657	0.431	0.616	0.446
RLQEGYDHSYY [ESD_Y258]	1.4	0.939	1.05	1.06	0.715	1.01	0.597	0.611	0.928	0.645	0.717	0.53	1.21	0.573	1.05	1.11
SSWKLYPRMLR [HAO1_Y50_R46S]	0.516	0.904	0.803	0.366	0.44	0.871	0.432	0.433	0.472	0.404	0.457	0.463	0.773	0.454	0.635	0.539

Sequence	SH2 binding enrichment (c-Src SH2)	SH2 binding enrichment (Grb2 SH2)	SH2 binding enrichment (SHP2-C SH2)	phosphorylation enrichment (c-Src)	phosphorylation enrichment (FGFR1)	phosphorylation enrichment (Fes)	phosphorylation enrichment (MERTK)	phosphorylation enrichment (Hck)	phosphorylation enrichment (FGFR3)	phosphorylation enrichment (Fyn)	phosphorylation enrichment (EPHB1)	phosphorylation enrichment (EPHB2)	phosphorylation enrichment (AncSZ)	phosphorylation enrichment (Fer (mouse))	phosphorylation enrichment (Jak2)	phosphorylation enrichment (c-Abl (mouse))
VDHFGYNKDDK [APOB_Y740_T741N]	0.465	0.665	0.595	0.485	0.465	0.874	0.434	0.436	0.493	0.485	0.427	0.528	1.02	0.398	1.1	0.974
VAMELYVFRGV [GAN_Y471_G474R]	0.548	0.836	0.567	0.615	0.553	1.29	0.684	0.651	0.807	0.503	0.707	0.841	1.16	0.501	1.09	0.935
RLLVVYPWTRR [HBB_Y36_Q40R]	0.465	0.506	0.448	0.68	0.567	0.626	0.64	1.14	0.823	0.523	0.505	0.597	0.683	0.407	0.469	0.577
GGYTCCCDGKK [PROS1_Y266_Y266C]	0.477	0.701	0.415	0.426	0.444	1	0.436	0.454	0.618	0.507	0.442	0.819	0.943	0.513	0.729	0.792
FSGDCYRIQGR [DDR2_Y741_Y740C_YF]	0.502	0.806	0.661	0.45	0.431	1.05	0.35	0.472	0.666	0.446	0.593	0.659	0.989	0.493	0.764	0.636
CEAMEYQESKQ [BTK_Y511_L512Q]	0.437	0.843	0.557	0.629	0.723	1.48	0.589	0.705	1.08	0.63	0.76	0.557	1.57	0.609	1.19	0.765
EGNERYEGFCV [GRIA3_Y451_YF]	1.52	0.74	0.66	0.479	0.649	1.15	0.431	0.554	0.697	0.58	0.662	0.515	1.12	0.55	1.01	0.783
APRKVYDTQDD [ZFPL1_Y215_R218Q]	0.501	0.716	0.671	0.479	0.549	1.09	0.466	0.586	0.653	0.495	0.692	0.685	0.993	0.67	0.808	0.766
WISNRSLDFSS [PRPH2_Y184_Y184S]	0.419	0.745	0.529	0.321	0.788	0.765	0.408	0.427	0.583	0.401	0.452	0.469	0.646	0.583	0.713	0.578
DKANRYFSPNV [PTEN_Y336_F341V]	0.644	0.808	0.839	0.388	0.355	0.544	0.354	0.376	0.504	0.378	0.297	0.394	0.446	0.363	0.412	0.486
CEETFYTMKVN [MASP2_Y401]	0.522	0.842	0.788	1.41	0.546	1.4	0.529	0.756	0.935	1.04	0.766	0.625	1.48	0.738	1.51	0.9
VKMLEYRGKDV [CASP5_Y74_L75R]	0.386	0.618	0.628	0.465	0.489	0.737	0.443	0.46	0.473	0.476	0.459	0.416	0.68	0.495	0.792	0.523
YQGGTYSKACT [FGG_Y380_S384C]	0.869	0.997	1.03	0.436	0.349	0.74	0.459	0.541	0.529	0.383	0.428	0.4	0.52	0.38	0.59	0.719
VPLATYMRIYK [RPL21_Y30]	0.534	0.668	0.55	0.429	0.526	0.958	0.412	0.477	0.687	0.454	0.511	0.492	0.887	0.517	1.01	0.591
SNNYIYTTLGV [FAM83B_Y639_K640T]	0.725	0.883	2.71	5.7	6.21	1.1	8.17	7.83	4.56	8.37	7.5	4.29	1.07	6.62	1.28	2.88
ADKSAYLMGPN [MYH7_Y386_L390P]	0.482	0.766	0.729	0.631	0.473	0.637	0.408	0.508	0.545	0.544	0.386	0.391	0.636	0.371	0.7	0.441
